The chains are these.
B1: 6xHis-tagged PDZ1 domain of ZO-1 (aa 19-113) (domain or fragment)
chain: WEQHTVTLHRAPGFGFGIAISGGRDNPHFQSGETSIVISDVLKGGPAEGQLQENDRVAMVNGVSMDNVEHAFAVQQLRKSGKNAKITIRRKKKVQ
B2: 6xHis-tagged PDZ1 domain of ZO-3 (aa 5-96) (domain or fragment)
chain: TIWEQHTATLYKDPRRGFGIAVSGGHDRASGSVVVSDVVPGSPAEGRLRTGDHIVMVNGVSVENVTSAFAIQILKTCTKTANVTVKRPRRVQ
B3: 6xHis-tagged PDZ1 domain of ZO-2 (aa 4-100) (domain or fragment)
chain: VIWEQYTVTLQKDSKRGFGIAVSGGRDNPHFENGETSIVISDVLPGGPADGLLQENDRVVMVNGTPMEDVLHSFAVQQLRKSGKIAAIVVKRPRKVQ

This is an account of results in publication PMC2168087.

By Kd is commonly meant the equilibrium constant for the complex coming apart.

The target of this assay is GST fusion protein with the cytoplasmic domain of claudin-1 (UniProt O88551). In words: pull-down.
UniProt O88551, sequence (O88551 whole entry, the tested form may be a part): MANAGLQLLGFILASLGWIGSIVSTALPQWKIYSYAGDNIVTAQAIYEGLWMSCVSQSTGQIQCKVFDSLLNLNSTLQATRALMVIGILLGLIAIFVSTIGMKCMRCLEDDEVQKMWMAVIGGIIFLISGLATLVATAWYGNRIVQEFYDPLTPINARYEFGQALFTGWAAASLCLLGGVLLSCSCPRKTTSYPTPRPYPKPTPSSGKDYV
Molecule B1 gave a Kd of 13 nM.

B2 displayed a Kd of 18 nM.

As for B3, the Kd stood at 11 nM.
